Test results as given in paper PMC9769388 (Journal of Virology, 2022).

Target: T1, soluble CD4 (D1D2 domains, residues 1 to 186)
T1 construct: also called sCD4; source: Expi293F, purified (StrepTrap HP, SEC)
Experiment: cryo-EM structure; Fab, soluble SOSIP trimer and sCD4 incubated at a molar ratio of 3.6:1:3.6 Fab/Env/sCD4 at room temperature for 4 h; single-particle cryo-EM of the ternary complex
Settings: both partners purified

B1: CG10 Fab (Fab, V domains shown)
VH: QVQLKQSGTELVRPGTSVKMSCKAAGYTFTDYWIGWVKQRPGHGLEWIGDFYPGGDYTLYSENFMGKASLTADTSSNTAYMQLSSLTSEDSAIYYCARGHYYGYSYAWFAYWGQGTLVTVSS
VL: DIVLTQSPASLAVSLGQRATISCKASQSVDYDGDSYMNWYQQKPGQPPKLLIYAASNLESGIPARFSGSGSGTDFTLNIHPVGEEDAATYYCQQSHEDPWTFGGGTMLEIK
notes: source: Expi293F, purified (Ni-NTA, SEC)
B1: binds.
